Data taken from publication PMC2807033, “Rep Provides a Second Motor at the Replisome to Promote Duplication of Protein-Bound DNA” (Molecular Cell, 2009).
No end group written: not given here. *: point of attachment. Biotin = O=C1N[C@H]2[C@H](CS[C@H]2CCCCC(=O)*)N1

Molecular target: T1, E. coli replicative helicase DnaB, purified (E. coli, UniProt P0ACB0 1-471)
T1 construct: replicative helicase DnaB, E. coli; Construct and purification are in the Supplemental Experimental Procedures; also called E. coli DnaB
Test: not stated; apparent KD (equilibrium dissociation constant), Figure S5; the method is not told in the text shown (SPR is the only quantitative binding method that the paper names)
Conditions: both partners purified

T1 sequence (P0ACB0 whole entry): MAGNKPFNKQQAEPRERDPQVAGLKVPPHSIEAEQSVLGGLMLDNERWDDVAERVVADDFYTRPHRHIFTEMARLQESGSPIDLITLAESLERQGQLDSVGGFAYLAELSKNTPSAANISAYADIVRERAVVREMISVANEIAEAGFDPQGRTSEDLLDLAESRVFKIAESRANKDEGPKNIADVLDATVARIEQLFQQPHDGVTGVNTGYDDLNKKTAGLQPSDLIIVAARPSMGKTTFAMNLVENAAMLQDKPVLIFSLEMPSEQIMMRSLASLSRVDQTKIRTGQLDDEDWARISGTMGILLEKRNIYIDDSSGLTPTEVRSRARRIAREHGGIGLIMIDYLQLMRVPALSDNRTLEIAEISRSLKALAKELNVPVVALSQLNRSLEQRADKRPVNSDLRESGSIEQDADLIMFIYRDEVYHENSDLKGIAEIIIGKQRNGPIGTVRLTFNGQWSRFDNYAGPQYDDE

B1: C33^Rep peptide (synthetic peptide corresponding to the C-terminal 33 residues of Rep) (peptide, UniProt P09980 641-673, looked up)
peptide: Biotin-EQERKVVSAEERMQKGQSHLANLKAMMAAKRGK
notes: C-terminal 33 residues of Rep helicase, E. coli; also called the Rep C terminus; source: synthetic peptide; not shown: biotin tag, N-terminal, kept
Binder B1 has a Kd of under 100 nM.
